± gives the uncertainty stated by the source.
Experiment: protein stability index of a GFP-peptide fusion (yeast GPS) (PSI 1-4); higher = more stable; sorted into four equal gates, so the index is relative within each strain
In short: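 For each peptide, the protein stability index sums the read frequency in every gate after multiplying it by the gate number. Read frequencies came from plasmids that were PCR-amplified from each gate and Illumina-sequenced, with reads assigned to strains by barcodes. The gates were four equal bins of GFP/Cherry fluorescence ratio applied to mid-log yeast in leucine-free medium carrying a pooled library of tiled 17-residue yeast protein peptides fused downstream of GFP on a Cherry-expressing plasmid.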

Sequence	protein stability index (doa10∆)	protein stability index (pdr5∆)	protein stability index (san1∆)	protein stability index (ubr1∆)
IQRTLMELLTQMDGFDN [RPT4]	2.84 ± 0.12	3.22 ± 0.079	3.28 ± 0.15	3.23 ± 0.1
IQTVVISLLALPHSPLW [YML031W/NDC1]	1.36 ± 0.076	1.58 ± 0.063	1.36 ± 0.1	2 ± 0.049
IQVFEKPFLKKTQEYYT [CDC53]	2.36 ± 0.073	2.33 ± 0.056	2.57 ± 0.078	2.57 ± 0.053
IRDLEKLYDKTENDIKA [RPT4]	2.66 ± 0.18	2.6 ± 0.21	1.91 ± 0.22	2.43 ± 0.22
IRNIVEAAAVRDLSEAS [RPS26A]	2.07 ± 0.066	2.39 ± 0.082	2.39 ± 0.079	2.49 ± 0.077
IRQDVNLGRAVFWEIQS [PRP8]	3.04 ± 0.069	2.86 ± 0.053	2.64 ± 0.06	2.86 ± 0.04
ISFAIYSALNSTYLPKL [RRP42]	2.1 ± 0.054	2.3 ± 0.048	2.05 ± 0.058	2.34 ± 0.039
ISFLEPINLKFLQGESP [YMR129W/POM152]	2.6 ± 0.073	2.94 ± 0.11		2.67 ± 0.15
ISGNPPLLYNSLCTVWK [SRB5]	2.56 ± 0.051	2.41 ± 0.045	2.34 ± 0.048	2.38 ± 0.055
ISKRKEELEEEFRKKLK [YIL149C/MLP2]	3.49 ± 0.11	3.35 ± 0.1	3.06 ± 0.089	3.67 ± 0.11
ISLLCKNFKGIEEIEYN [PCI8]	2.94 ± 0.082	3.31 ± 0.075	3.11 ± 0.04	3.01 ± 0.061
ISLVDDIINAVNEIMYK [MTW1]	2.9 ± 0.073	2.91 ± 0.081	2.83 ± 0.053	3.1 ± 0.095
ISRERDLFTHLWNQWLK [SRP68]	3.04 ± 0.12	3.06 ± 0.12	2.99 ± 0.055	2.93 ± 0.11
ISRNGDTSYKIDGKTVS [SMC1]	2.72 ± 0.14	3.01 ± 0.074	2.9 ± 0.064	3.29 ± 0.081
ISSSAIPYSRNAPAWFK [RPS13]	2.33 ± 0.09	2.9 ± 0.071	2.21 ± 0.086	2.37 ± 0.063
ISTLFQRDRHTLAYDRG [PRP8]	2.58 ± 0.14	3.21 ± 0.13	2.68 ± 0.082	2.79 ± 0.058
ISWCSLSETNGLHKFVK [PRE10]	2.38 ± 0.089	2.73 ± 0.12	2.82 ± 0.11	2.44 ± 0.11
ITGEDEVLCSRIIEKSV [RRP45]	2 ± 0.051	2.45 ± 0.054	2.1 ± 0.098	1.89 ± 0.059
ITHNTNITDNLFQELSK [GRR1]	3.27 ± 0.091	3.55 ± 0.13	3.62 ± 0.22	3.18 ± 0.16
ITLLPSSLKESSPDTMK [SNF12]	2.96 ± 0.19			2.27 ± 0.25
ITQMRVNDEEEHKQLVA [RPC82]	3.29 ± 0.13	2.92 ± 0.099	2.82 ± 0.13	3.34 ± 0.16
ITRLCQTLGLESFTEEL [MED1]	2.54 ± 0.054	2.81 ± 0.063	1.59 ± 0.16	2.51 ± 0.056
ITRSVMRFNIEIIADWI [BRR2]	3.04 ± 0.071	2.7 ± 0.078	2.57 ± 0.097	3.16 ± 0.065
IVAKYDPPIIIFINYKQ [PRP28]	2.47 ± 0.075	1.77 ± 0.068	1.98 ± 0.12	1.96 ± 0.048
IVAQSEVEVSTRDLFDL [RPO31]	3.07 ± 0.074	3.34 ± 0.083	3.3 ± 0.059	3.2 ± 0.067
IVDDYWESLAKKQNLSS [SWP82]	2.91 ± 0.073	2.93 ± 0.089	3.45 ± 0.1	2.96 ± 0.059
IVEQDKSMELFYDIRSL [YJL039C/NUP192]	2.34 ± 0.13	2.93 ± 0.11	2.66 ± 0.086	3.16 ± 0.082

Sequence	protein stability index (doa10∆)	protein stability index (pdr5∆)	protein stability index (san1∆)	protein stability index (ubr1∆)
IVHHPYQSLKQIVQVLK [SSN8]	1.24 ± 0.061	1.58 ± 0.099	1.18 ± 0.14	1.25 ± 0.072
IVKASNWRLVEVGRVVL [RPL14A]	2.8 ± 0.1	1.43 ± 0.13		1.69 ± 0.089
IVKVFHGAFMDIIWLQR [RRP6]	2.1 ± 0.056	1.53 ± 0.047	1.32 ± 0.073	1.18 ± 0.033
IVNVNFMKSVIRSREAF [DIS3]	2.75 ± 0.065	2.77 ± 0.062	2.2 ± 0.098	2.31 ± 0.04
IVQIDATPFRQWFEAHY [RPS8A]	2.425 ± 0.022	2.797 ± 0.025	2.626 ± 0.023	2.697 ± 0.019
IVTGNLVLDLLTWLSSF [IRR1]	2.63 ± 0.061	2.66 ± 0.041	2.05 ± 0.07	2.29 ± 0.039
IVTKDGVRKEFYELKRD [PRE7]	2.35 ± 0.093	2.16 ± 0.066	3.04 ± 0.082	3.16 ± 0.07
IVVQLNGRLNKCGVISP [RPS22A]	3.25 ± 0.19	3.35 ± 0.14	2.98 ± 0.093	3.49 ± 0.079
IYISNLVRSIIAFDDLI [RPN8]	1.42 ± 0.066	1.36 ± 0.11	1.17 ± 0.23	1.27 ± 0.27
IYLSRFLIKASVREINL [SSN8]	1.83 ± 0.18	1.86 ± 0.13	2.04 ± 0.13	1.25 ± 0.16
IYNNIVSNIEGILDEIM [RGR1]	2.72 ± 0.08	2.09 ± 0.066	2.15 ± 0.098	2.46 ± 0.05
IYNSASKASMQKEQNVN [YCS4]	1.65 ± 0.13	2.11 ± 0.13	1.58 ± 0.22	2.17 ± 0.077
IYRTTRQDGSYTYHSTN [ARP9]	2.61 ± 0.08	2.74 ± 0.083	2.27 ± 0.093	2.53 ± 0.058
IYRVRVRRGNRKRPVPK [RPL15A]		2.86 ± 0.2		3.2 ± 0.14
IYSRDIGAELKREESES [SNF2]	3.06 ± 0.087	3.19 ± 0.086	3.08 ± 0.066	3.01 ± 0.071
KAAAGAGSAALKIIHDT [RPO31]	3.45 ± 0.13	1.8 ± 0.17	1.72 ± 0.13	1.77 ± 0.18
KAIPTFSFGKPFFSSNT [YIL149C/MLP2]	3.07 ± 0.048	3.14 ± 0.046	2.94 ± 0.035	3.011 ± 0.028
KAKSNQTQREKAPLQPN [IRR1]	3.07 ± 0.058	3.24 ± 0.052	3.09 ± 0.035	3.07 ± 0.05
KAKSVVNDVEELGEIID [RMP1]	3.4 ± 0.14		2.8 ± 0.26	
KALLFFNNEKETEKFAL [RPN12]	3.25 ± 0.084	3.03 ± 0.12	3.31 ± 0.059	3.17 ± 0.083
KALPIRRDDEVLVVRGS [RPL26A]	3.06 ± 0.18	3.05 ± 0.12	3.23 ± 0.13	3.32 ± 0.15
KALVLFVPVPALSAYHK [RPS7B]	2.13 ± 0.063	2.51 ± 0.072	2.12 ± 0.12	2.4 ± 0.041
KAPEQFIENFLTNDTFE [YML103C/NUP188]	2.84 ± 0.12	3.16 ± 0.1	2.93 ± 0.12	3.02 ± 0.075
KCQTCQEGMNECPGHFG [RPO21]	3.34 ± 0.17	3.23 ± 0.094	3.51 ± 0.086	3.26 ± 0.091
KDAEDETSSDGSKSDGS [RPN1]	3.38 ± 0.051	3.41 ± 0.054	3.64 ± 0.047	3.29 ± 0.035
KDAEYLRNYLTPNVREE [PUP1]	3.09 ± 0.057	3.01 ± 0.075	3.14 ± 0.056	3.16 ± 0.081

Reference: the supplement of paper PMC9732359
